For one test, the target named is H12M35-Fc (Homo sapiens / Mus musculus chimera, UniProt P50895;Q9R069, chimera).
In test [1] the target is recombinant Lu extracellular domain fused with a 6xHis-Tag (Sol-Lu) (Homo sapiens, UniProt P50895).
In test [2] the target is T1, recombinant Lu extracellular domain fused with an Fc-Tag (Lu-Fc) (Homo sapiens, UniProt P50895).
Test [3] has as its target T1, recombinant Lu extracellular domain …. Nature of the test: SPR; BIAcore T200; Lu-Fc immobilized on a CM5 chip; C7 scFv (6.25, 12.5, 25, 50 and 100 nM) injected in 10 mM HEPES pH 7.4, 150 mM NaCl, 3 mM EDTA, 0.005% Tween 20 at 50 μl/min; nonlinear fitting. As to conditions: both partners purified. (SPR reads the build-up and loss of mass on a sensor chip optically.)

Positions count from the first letter of the chain named.

Sequence of H12M35-Fc (Q9R069 other isoform, or with tags, fused parts or gaps chimera): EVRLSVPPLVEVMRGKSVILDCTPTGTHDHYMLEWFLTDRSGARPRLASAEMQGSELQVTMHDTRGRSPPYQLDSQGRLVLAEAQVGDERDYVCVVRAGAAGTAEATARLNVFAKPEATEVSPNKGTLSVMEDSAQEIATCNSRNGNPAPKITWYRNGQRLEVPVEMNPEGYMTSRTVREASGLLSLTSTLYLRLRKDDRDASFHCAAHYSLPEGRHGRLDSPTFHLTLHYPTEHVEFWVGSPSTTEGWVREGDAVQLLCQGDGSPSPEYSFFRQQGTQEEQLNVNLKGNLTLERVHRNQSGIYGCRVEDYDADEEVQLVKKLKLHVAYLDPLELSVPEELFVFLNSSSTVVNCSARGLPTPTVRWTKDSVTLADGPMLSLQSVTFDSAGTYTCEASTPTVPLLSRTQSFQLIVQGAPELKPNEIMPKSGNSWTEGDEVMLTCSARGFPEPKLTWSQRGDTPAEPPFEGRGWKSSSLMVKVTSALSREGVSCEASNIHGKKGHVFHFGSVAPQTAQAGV
Sequence of recombinant Lu extracellular domain fused with a 6xHis-Tag (Sol-Lu) (P50895 32-547): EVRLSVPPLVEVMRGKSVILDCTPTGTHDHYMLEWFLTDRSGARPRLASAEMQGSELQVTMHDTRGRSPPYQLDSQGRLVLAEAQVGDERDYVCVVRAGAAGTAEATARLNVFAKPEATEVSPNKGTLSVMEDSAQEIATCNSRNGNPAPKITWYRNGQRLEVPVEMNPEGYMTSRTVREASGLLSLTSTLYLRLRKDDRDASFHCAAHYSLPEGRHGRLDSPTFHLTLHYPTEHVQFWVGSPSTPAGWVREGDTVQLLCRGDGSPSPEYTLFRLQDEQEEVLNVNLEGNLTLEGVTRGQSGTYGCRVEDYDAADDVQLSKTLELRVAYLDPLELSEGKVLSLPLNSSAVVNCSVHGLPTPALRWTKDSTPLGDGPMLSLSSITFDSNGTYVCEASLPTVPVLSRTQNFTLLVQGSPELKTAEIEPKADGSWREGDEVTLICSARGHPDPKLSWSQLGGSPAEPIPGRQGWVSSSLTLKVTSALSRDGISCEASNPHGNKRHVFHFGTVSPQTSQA
T1 sequence (P50895 32-547): as above

B1: A1 (antibody, V domains shown)
VH: QVQLVQSGAEVRRPGSSVRISCRTSGGTFNNYALSWVRQAPGQGLEWMGGIIPIVGTAVYAEKFEDSVTVTADESASTAYMEVRSLRSEDTAVYYCATGEKFVSPWFGDLPLHHWGQGTLVTVSS
VL: QSVLTQPPSVSGAPGQRVTISCTGSSSNIGAPYDVHWYQQVPGTAPKLLIYGNTNRPSRVPDRFSGSKSGTSASLAITGLQADDEADYYCQSYDRSLGGSIFGGGTKLTVL
Consider B1, for which the binding result (in the test with H12M35-Fc; in test [1]; in test [2]) was “binds” each time.

B2: A4 (antibody, V domains shown)
VH: B1 VH
VL: B1 VL with R59G
Turning to B2, the binding result (with H12M35-Fc; in test [1]; in test [2]) was “binds” each time.

B3: C7 scFv (soluble, purified) (scFv, V domains shown)
VH: B1 VH with V2M, R87G
VL: B1 VL with V41I, R59G
notes: VH of clone C7, as in m3; linker, printed as (Gly4Ser)3; VL of clone C7, as in m3; Single band of 29-30 kDa; monomer by size exclusion chromatography; The 6xHis tag is named in the discussion (6xHis tag antibody); also called the scFv form; the purified C7 scFv; source: E. coli HB2151, periplasmic fraction, purified (His Trap excel)
In general, Kd refers to the free concentration of one partner at which half of the binding sites on the other are occupied at equilibrium, for simple one-to-one binding. As usually defined, the koff is the rate constant with which the complex falls apart. As a reminder, the kon is the rate constant with which the complex forms. On to B3, for which, in test [3], the Kd amounted to 36.6 nM, the dissociation rate constant (koff) was 0.0049 s⁻¹ and the kon worked out at 135000 M⁻¹ s⁻¹.

B4: B8 (antibody, V domains shown)
VH: B1 VH with V2M
VL: B1 VL with V41L, R59G, L108V
Turning to B4, the binding result (with H12M35-Fc; in test [1]; in test [2]) was “binds” throughout.

The record behind these values is paper PMC5218393 (PLoS ONE, 2017).
